In article PMC7311471, “The iron–sulphur cluster in human DNA2 is required for all biochemical activities of DNA2”:

Tests used:
DNA2 D277A [1] = molecular target: T1, DNA2 D277A (human, UniProt P51530 1-1060, D277A); experiment: EMSA; similar affinity as WT; EMSA: 25 mM Tris-HCl pH 8.0, 0.1 mg/ml BSA, 5 mM EDTA, with or without 1 mM DTT, 30 min on ice; 4-5 nM FAM-DNA or 1 nM 32P-DNA; conditions: protein: recombinant; tags: FLAG; 5' flap 32 nt on strand 1; 1:2 and 2:3 paired
T1 sequence: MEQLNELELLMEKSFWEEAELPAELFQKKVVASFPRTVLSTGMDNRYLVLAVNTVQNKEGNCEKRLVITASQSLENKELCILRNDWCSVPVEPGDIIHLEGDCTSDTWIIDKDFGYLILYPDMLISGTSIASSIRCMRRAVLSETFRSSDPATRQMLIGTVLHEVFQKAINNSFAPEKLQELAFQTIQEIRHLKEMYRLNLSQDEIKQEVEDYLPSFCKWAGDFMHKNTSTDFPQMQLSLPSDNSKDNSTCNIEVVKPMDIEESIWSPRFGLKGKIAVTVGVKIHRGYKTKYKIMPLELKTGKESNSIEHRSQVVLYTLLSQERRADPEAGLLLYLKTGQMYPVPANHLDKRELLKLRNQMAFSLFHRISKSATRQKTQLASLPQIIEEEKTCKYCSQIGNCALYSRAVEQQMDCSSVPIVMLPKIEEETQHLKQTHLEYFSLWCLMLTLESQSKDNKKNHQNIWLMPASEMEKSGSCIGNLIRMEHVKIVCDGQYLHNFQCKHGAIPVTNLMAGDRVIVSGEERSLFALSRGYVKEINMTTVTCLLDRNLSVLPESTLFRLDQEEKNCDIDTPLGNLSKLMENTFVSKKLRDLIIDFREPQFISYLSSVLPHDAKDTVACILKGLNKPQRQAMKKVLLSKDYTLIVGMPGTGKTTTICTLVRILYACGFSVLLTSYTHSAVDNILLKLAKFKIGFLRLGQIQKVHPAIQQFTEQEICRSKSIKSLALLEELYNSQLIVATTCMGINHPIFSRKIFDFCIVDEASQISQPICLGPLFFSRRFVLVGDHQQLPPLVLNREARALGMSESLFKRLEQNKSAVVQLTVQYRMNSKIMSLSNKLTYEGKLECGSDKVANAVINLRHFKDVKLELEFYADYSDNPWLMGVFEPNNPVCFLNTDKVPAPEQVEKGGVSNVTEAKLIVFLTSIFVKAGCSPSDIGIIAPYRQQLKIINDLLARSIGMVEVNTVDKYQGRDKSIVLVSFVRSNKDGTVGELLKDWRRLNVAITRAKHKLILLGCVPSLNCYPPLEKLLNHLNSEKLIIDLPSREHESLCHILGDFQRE

DNA2 D277A [2] = molecular target: T1, DNA2 D277A; experiment: EMSA; EMSA: 25 mM Tris-HCl pH 8.0, 0.1 mg/ml BSA, 5 mM EDTA, with or without 1 mM DTT, 30 min on ice; 4-5 nM FAM-DNA or 1 nM 32P-DNA; conditions: protein: recombinant; tags: FLAG; label: 3' 32P cordycepin on X04; fork 1:2, 5' arm 32 nt, 3' arm 30 nt

B1: 5' flap (FAM) (mixed)
DNA 1: ATCGATAGTCGGATCCTCTAGACAGCTCCATGTAGCAAGGCACTGGTAGAATTCGGCAGCGT
DNA 2: GACGCTGCCGAATTCTACCAGTGCCTTGCTAGGACATCTTTGCCCACCTGCAGGTTCACCC
DNA 3: TGGGTGAACCTGCAGGTGGGCAAAGATGTCC
B1: binds (DNA2 D277A [1]).

B2: Y-structure (32P) (mixed)
DNA 1: ATCGATAGTCGGATCCTCTAGACAGCTCCATGTAGCAAGGCACTGGTAGAATTCGGCAGCGT
DNA 2: GACGCTGCCGAATTCTACCAGTGCCTTGCTAGGACATCTTTGCCCACCTGCAGGTTCACCC
B2: binds (DNA2 D277A [2]).
